This is an account of results in US7344852 (Takeda / Millennium, dated 2008).

This data set deals with the molecule itself. In words: X-ray crystal structure of apo DPPIV (self-association, homodimer). The protocol: The structure of DPPIV was solved by a combination of heavy-atom derivatives and Seleno-Methionine (Se-Met) phasing in conjunction with non-crystallographic averaging. Heavy atom derivatives were obtained by soaking native DPPIV crystals in heavy atom solutions made using the crystallization solution. The concentration of heavy atom derivative and time of soaking varied between 0.5 mM to 10 mM and 1 to 15 days, respectively. An extensive array of heavy atom derivatives were individually soaked into DPPIV crystals and analyzed. Two heavy atom derivatives were used to determine the phases: di-m-iodobis (ethylene-diamine)-di-platinum (II) nitrate (PIP) and ethyl mercuric thiosalicylic acid sodium salt (EMTS). Data from crystals of apo DPPIV, Se-Met-DPPIV, PIP-DPPIV and EMTS-DPPIV were collected from cryocooled crystals (100K) at the Stanford Synchrotron Radiation Laboratory (SSRL) beam lines 9-1, 9-2 and 11-1 and the Advanced Light Source (ALS) beam lines 5.0.2 and 5.0.3 both using an ADSC Quantum CCD detector. […] Data were collected and integrated to 2.3 Å with MOSFLM (or HKL2000) and scaled with SCALA (or Scalepack) (CCP4 Study Weekend, Eds. Sawyer, L., Isaacs, N. & Bailey, S. 56-62, SERC Daresbury Laboratory, England, 1993).
Crystals were obtained after an extensive and broad screen of conditions, followed by optimization. […]

B1: recombinant human dipeptidyl peptidase IV (DPPIV), residues 39-766 of SEQ ID NO:1 with part of a gp67 signal sequence and a 6x-histidine tag (SEQ ID NO:3) (enzyme)
chain: ADPGGSHHHHHHSRKTYTLTDYLKNTYRLKLYSLRWISDHEYLYKQENNILVFNAEYGNSSVFLENSTFDEFGHSINDYSISPDGQFILLEYNYVKQWRHSYTASYDIYDLNKRQLITEERIPNNTQWVTWSPVGHKLAYVWNNDIYVKIEPNLPSYRITWTGKEDIIYNGITDWVYEEEVFSAYSALWWSPNGTFLAYAQFNDTEVPLIEYSFYSDESLQYPKTVRVPYPKAGAVNPTVKFFVVNTDSLSSVTNATSIQITAPASMLIGDHYLCDVTWATQERISLQWLRRIQNYSVMDICDYDESSGRWNCLVARQHIEMSTTGWVGRFRPSEPHFTLDGNSFYKIISNEEGYRHICYFQIDKKDCTFITKGTWEVIGIEALTSDYLYYISNEYKGMPGGRNLYKIQLSDYTKVTCLSCELNPERCQYYSVSFSKEAKYYQLRCSGPGLPLYTLHSSVNDKGLRVLEDNSALDKMLQNVQMPSKKLDFIILNETKFWYQMILPPHFDKSKKYPLLLDVYAGPCSQKADTVFRLNWATYLASTENIIVASFDGRGSGYQGDKIMHAINRRLGTFEVEDQIEAARQFSKMGFVDNKRIAIWGWSYGGYVTSMVLGSGSGVFKCGIAVAPVSRWEYYDSVYTERYMGLPTPEDNLDHYRNSTVMSRAENFKQVEYLLIHGTADDNVHFQQSAQISKALVDVGVDFQAMWYTDEDHGIASSTAHQHIYTHMSHFIKQCFSLP
modifications: glycosylated; four or five residues per chain carry covalently linked sugar molecules (NAG), positions not given
notes: Secreted from baculovirus-infected insect cells; crystallised as apo protein; The asymmetric unit holds four copies that form two dimers (A with B, C with D); also called DPP4; CD26
In the case of B1, the binding result is on record as “binds”.
